Data taken from PMC7822592, “The half-life of the bone-derived hormone osteocalcin is regulated through O-glycosylation in mice, but not in humans” (eLife, 2020).
No end group written: not given here. O‑glycan = not defined here

Experiment: Ex vivo half-life of mouse OCN in plasma
Format: in vitro ADME
Settings: 100 ng/ml; for % OCN from initial: Bglap-/- mouse plasma
Description: The mouse OCN ex vivo half-life assays were performed with fresh plasma (lithium heparin) collected from four independent Bglap-/- mice. Glycosylated OCN produced in HEK293 cells and non-glycosylated OCN, produced in bacteria as previously described ([Ferron et al., 2012]), were incubated at 100 ng/ml in plasma at 37°C and OCN level was measured at indicated time points using the total mouse OCN ELISA assay described previously ([Ferron et al., 2010b]). […] The detection antibody is a goat polyclonal antibody directed against the C-terminal region (amino acids 26 to 46) of mouse OCN (anti-CTERM OCN). This assay detects with the same sensitivity glycosylated and non-glycosylated mouse OCN at concentration of 50 ng/ml or less (Figure 3—figure supplement 2). Therefore, all samples were diluted to be in this range before being measured by the ELISA. Human OCN half-life assay was performed ex vivo using Bglap-/- mice plasma and human OCN at 60 ng/ml. Human OCN level was measured at different time point using the human ucOCN ELISA described above. At the experiment start point (T0), an aliquot of plasma was diluted in ELISA assay buffer and kept on ice for OCN measurements. In some experiments, plasma was heat-inactivated for 30 min at 56°C, or treated with EDTA (10 mM, Wisent), phenylmethylsulfonyl fluoride (PMSF, 10 mM, Sigma), pepstatin A (Pep A, 10 μM, Sigma) which inhibits aspartic proteases (pepsin, cathepsin D, renin, chymosin), RVKR (Dec-RVKR-CMK, 50 μM; Tocris) or talabostat (10 mM; Tocris). Results are calculated in percentage relative to the initial concentration of non-glycosylated and glycosylated OCN respectively.

O-gly ucOCN: O-glycosylated uncarboxylated mouse osteocalcin produced and purified from HEK293 as Fc fusion, released by thrombin (YLGASVPS(O‑glycan)PDPLEPTREQCELNPACDELSDQYGLKTAYKRIYGITI; ends and bridges not checked; also: O-glycosylated (HexNAc, Hex, NANA); UniProt P86546 50-95, looked up)
% OCN from initial (37°C, 0 min, ELISA, replicate 1): 100.0% | % OCN from initial (37°C, 0 min, ELISA, replicate 2): 100.0% | % OCN from initial (37°C, 0 min, ELISA, replicate 3): 100.0% | % OCN from initial (37°C, 0 min, ELISA, replicate 4): 100.0% | % OCN from initial (37°C, 0 min, ELISA, replicate 5): 100.0% | % OCN from initial (37°C, 15 min, ELISA, replicate 1): 104.1% | % OCN from initial (37°C, 15 min, ELISA, replicate 2): 103.7% | % OCN from initial (37°C, 15 min, ELISA, replicate 3): 102.4% | % OCN from initial (37°C, 15 min, ELISA, replicate 4): 105.4% | % OCN from initial (37°C, 15 min, ELISA, replicate 5): 92.4% | % OCN from initial (37°C, 30 min, ELISA, replicate 1): 101.9% | % OCN from initial (37°C, 30 min, ELISA, replicate 2): 103.9% | % OCN from initial (37°C, 30 min, ELISA, replicate 3): 104.6% | % OCN from initial (37°C, 30 min, ELISA, replicate 4): 102.8% | % OCN from initial (37°C, 30 min, ELISA, replicate 5): 91.2% | % OCN from initial (37°C, 60 min, ELISA, replicate 1): 103.5% | % OCN from initial (37°C, 60 min, ELISA, replicate 2): 108.3% | % OCN from initial (37°C, 60 min, ELISA, replicate 3): 103.5% | % OCN from initial (37°C, 60 min, ELISA, replicate 4): 102.6% | % OCN from initial (37°C, 60 min, ELISA, replicate 5): 95.6% | % OCN from initial (37°C, 90 min, ELISA, replicate 1): 108.4% | % OCN from initial (37°C, 90 min, ELISA, replicate 2): 106.6% | % OCN from initial (37°C, 90 min, ELISA, replicate 3): 107.8% | % OCN from initial (37°C, 90 min, ELISA, replicate 4): 102.6% | % OCN from initial (37°C, 90 min, ELISA, replicate 5): 92.9% | % OCN from initial (37°C, 120 min, ELISA, replicate 1): 105.8% | % OCN from initial (37°C, 120 min, ELISA, replicate 2): 103.2% | % OCN from initial (37°C, 120 min, ELISA, replicate 3): 106.0% | % OCN from initial (37°C, 120 min, ELISA, replicate 4): 107.0% | % OCN from initial (37°C, 120 min, ELISA, replicate 5): 90.1% | % OCN from initial (37°C, 180 min, ELISA, replicate 1): 106.8% | % OCN from initial (37°C, 180 min, ELISA, replicate 2): 107.9% | % OCN from initial (37°C, 180 min, ELISA, replicate 3): 107.4% | % OCN from initial (37°C, 180 min, ELISA, replicate 4): 119.0% | % OCN from initial (37°C, 180 min, ELISA, replicate 5): 78.8% | % OCN from initial (37°C, 300 min, ELISA, replicate 1): 106.5% | % OCN from initial (37°C, 300 min, ELISA, replicate 2): 103.5% | % OCN from initial (37°C, 300 min, ELISA, replicate 3): 104.6% | % OCN from initial (37°C, 300 min, ELISA, replicate 4): 102.2% | % OCN from initial (37°C, 300 min, ELISA, replicate 5): 88.0% | % OCN from initial (Figure 3D, 2hrs, 37°C, Not HI, ELISA, replicate 1): 100.8% | % OCN from initial (Figure 3D, 2hrs, 37°C, Not HI, ELISA, replicate 2): 92.4% | % OCN from initial (Figure 3D, 2hrs, 37°C, Not HI, ELISA, replicate 3): 106.8% | % OCN from initial (Figure 3D, T0, ELISA, replicate 1): 101.5% | % OCN from initial (Figure 3D, T0, ELISA, replicate 2): 94.9% | % OCN from initial (Figure 3D, T0, ELISA, replicate 3): 103.6% | % OCN from initial (Figure 3 supplement 3A, 37°C, T=2hours, replicate 1): 90.8% | % OCN from initial (Figure 3 supplement 3A, 37°C, T=2hours, replicate 2): 95.5% | % OCN from initial (Figure 3 supplement 3A, 37°C, T=2hours, replicate 3): 95.0% | % OCN from initial (Figure 3 supplement 3A, T0, replicate 1): 105.0% | % OCN from initial (Figure 3 supplement 3A, T0, replicate 2): 101.3% | % OCN from initial (Figure 3 supplement 3A, T0, replicate 3): 93.7% | stable in plasma for (fresh Bglap-/- mouse plasma (lithium heparin), 37°C, total mouse OCN ELISA, n = 4 plasma): more than 5 hr
